According to article PMC6477676, “Staufen2-mediated RNA recognition and localization requires combinatorial action of multiple domains”:

Tests used:
[1] = biological target: T1, mStau2 dsRBD1-2 (Mus musculus, UniProt Q8CJ67 8-181); assay: EMSA; Kd micromolar; SPR: HBS-EP (10 mM HEPES pH 7.4, 150 mM NaCl, 3 mM EDTA, 0.005% P20); EMSA: 5 nM RNA, protein buffer (40 mM Bis-Tris pH 7, 150 mM NaCl, 2 mM DTT presumed), 4% glycerol, 30 ug/mL yeast tRNA, RT; NMR: 150 mM NaCl, 20 mM Na phosphate pH 7.0, 5 mM DTT, 298 K; conditions: protein: recombinant; tags: HisSUMO removed; label: 5' 32P; hairpin, 3' ss extension
T1 sequence: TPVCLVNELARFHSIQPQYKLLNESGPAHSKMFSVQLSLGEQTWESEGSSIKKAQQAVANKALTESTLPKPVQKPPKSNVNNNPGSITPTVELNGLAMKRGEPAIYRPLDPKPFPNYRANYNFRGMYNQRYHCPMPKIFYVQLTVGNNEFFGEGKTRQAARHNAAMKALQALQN

[2] = biological target: T2, mStau2 dsRBD3-4 (Mus musculus, UniProt Q8CJ67 207-375); assay: as above; conditions: protein: recombinant; tags: HisSUMO removed; label: 5' 32P; hairpin, 3' ss extension
T2 sequence: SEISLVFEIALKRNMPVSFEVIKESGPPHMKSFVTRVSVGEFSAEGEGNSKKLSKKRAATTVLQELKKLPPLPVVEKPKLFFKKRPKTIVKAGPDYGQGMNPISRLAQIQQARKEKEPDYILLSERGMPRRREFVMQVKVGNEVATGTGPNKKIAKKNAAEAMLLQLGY

[3] = biological target: T3, mStau2 full-length (Mus musculus, UniProt Q8CJ67 1-570); assay: EMSA; Kd low micromolar; SPR: HBS-EP (10 mM HEPES pH 7.4, 150 mM NaCl, 3 mM EDTA, 0.005% P20); EMSA: 5 nM RNA, protein buffer (40 mM Bis-Tris pH 7, 150 mM NaCl, 2 mM DTT presumed), 4% glycerol, 30 ug/mL yeast tRNA, RT; NMR: 150 mM NaCl, 20 mM Na phosphate pH 7.0, 5 mM DTT, 298 K; conditions: protein: recombinant; tags: HisSUMO; label: 5' 32P; hairpin
T3 sequence: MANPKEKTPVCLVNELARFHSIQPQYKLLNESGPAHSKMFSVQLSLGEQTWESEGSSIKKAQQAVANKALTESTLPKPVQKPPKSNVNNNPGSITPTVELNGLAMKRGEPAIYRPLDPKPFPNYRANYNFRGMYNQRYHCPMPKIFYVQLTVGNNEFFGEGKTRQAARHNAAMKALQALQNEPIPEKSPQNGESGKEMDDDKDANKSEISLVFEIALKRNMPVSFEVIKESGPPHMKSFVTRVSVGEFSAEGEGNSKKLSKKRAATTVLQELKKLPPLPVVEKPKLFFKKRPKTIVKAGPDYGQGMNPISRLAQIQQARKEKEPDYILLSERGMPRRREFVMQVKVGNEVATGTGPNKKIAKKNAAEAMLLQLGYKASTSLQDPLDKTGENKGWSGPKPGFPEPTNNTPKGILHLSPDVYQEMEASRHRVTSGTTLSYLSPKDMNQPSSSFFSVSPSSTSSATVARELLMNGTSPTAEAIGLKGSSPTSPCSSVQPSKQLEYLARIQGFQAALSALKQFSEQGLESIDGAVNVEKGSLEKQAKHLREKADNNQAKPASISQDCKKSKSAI

[4] = biological target: T1, mStau2 dsRBD1-2; assay: EMSA; comparable with dsRBD3-4; SPR: HBS-EP (10 mM HEPES pH 7.4, 150 mM NaCl, 3 mM EDTA, 0.005% P20); EMSA: 5 nM RNA, protein buffer (40 mM Bis-Tris pH 7, 150 mM NaCl, 2 mM DTT presumed), 4% glycerol, 30 ug/mL yeast tRNA, RT; NMR: 150 mM NaCl, 20 mM Na phosphate pH 7.0, 5 mM DTT, 298 K; conditions: protein: recombinant; tags: HisSUMO removed; label: 5' 32P; hairpin
[5] = biological target: T4, mStau2 dsRBD4 (Mus musculus, UniProt Q8CJ67 307-375); assay: EMSA; binds at micromolar concentrations; SPR: HBS-EP (10 mM HEPES pH 7.4, 150 mM NaCl, 3 mM EDTA, 0.005% P20); EMSA: 5 nM RNA, protein buffer (40 mM Bis-Tris pH 7, 150 mM NaCl, 2 mM DTT presumed), 4% glycerol, 30 ug/mL yeast tRNA, RT; NMR: 150 mM NaCl, 20 mM Na phosphate pH 7.0, 5 mM DTT, 298 K; conditions: protein: recombinant; label: 5' 32P; hairpin
T4 sequence: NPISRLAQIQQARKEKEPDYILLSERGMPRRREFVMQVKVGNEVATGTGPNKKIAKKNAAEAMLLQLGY

[6] = biological target: T5, mStau2 dsRBD3 (Mus musculus, UniProt Q8CJ67 207-274); assay: EMSA; up to 5 uM; SPR: HBS-EP (10 mM HEPES pH 7.4, 150 mM NaCl, 3 mM EDTA, 0.005% P20); EMSA: 5 nM RNA, protein buffer (40 mM Bis-Tris pH 7, 150 mM NaCl, 2 mM DTT presumed), 4% glycerol, 30 ug/mL yeast tRNA, RT; NMR: 150 mM NaCl, 20 mM Na phosphate pH 7.0, 5 mM DTT, 298 K; conditions: protein: recombinant; label: 5' 32P; hairpin
T5 sequence: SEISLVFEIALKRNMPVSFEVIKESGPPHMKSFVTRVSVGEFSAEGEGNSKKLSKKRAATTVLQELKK

[7] = biological target: T2, mStau2 dsRBD3-4; assay: EMSA; SPR: HBS-EP (10 mM HEPES pH 7.4, 150 mM NaCl, 3 mM EDTA, 0.005% P20); EMSA: 5 nM RNA, protein buffer (40 mM Bis-Tris pH 7, 150 mM NaCl, 2 mM DTT presumed), 4% glycerol, 30 ug/mL yeast tRNA, RT; NMR: 150 mM NaCl, 20 mM Na phosphate pH 7.0, 5 mM DTT, 298 K; conditions: protein: recombinant; tags: HisSUMO removed; label: 5' 32P; hairpin
[8] = biological target: T1, mStau2 dsRBD1-2; assay: EMSA; almost abolished; no complex observed; SPR: HBS-EP (10 mM HEPES pH 7.4, 150 mM NaCl, 3 mM EDTA, 0.005% P20); EMSA: 5 nM RNA, protein buffer (40 mM Bis-Tris pH 7, 150 mM NaCl, 2 mM DTT presumed), 4% glycerol, 30 ug/mL yeast tRNA, RT; NMR: 150 mM NaCl, 20 mM Na phosphate pH 7.0, 5 mM DTT, 298 K; conditions: protein: recombinant; tags: HisSUMO removed; label: 5' 32P; hairpin, 3' ss extension
[9] = biological target: T2, mStau2 dsRBD3-4; assay: as above; conditions: protein: recombinant; tags: HisSUMO removed; label: 5' 32P; hairpin, 3' ss extension

GGACAUGCACAAUUUGUGUGUAUGUAUAUA (structured_RNA) [10 bp SRS2 stem-loop (9bpSRS2+5)]: binds [1]; binds [2].

GGGUUCCGUCAAGCCACUGGGUCUUGAUGGAGC (structured_RNA) [Rgs4 SRS1]: binds [3].

GGGACAUGCACAUGCAAUUUGUGUAUGUGUAUGU (structured_RNA) [Rgs4 SRS2 (EMSA transcript)]: binds [4]; binds [5]; no binding [6]. GGGACAUGCACAUGCAAUUUGUGUAUGUGUAUGU (structured_RNA) [Rgs4 SRS2 (EMSA transcript)]: binds [3]; binds [7].

GGACAUGCAAUUUGUGUAUGUAUAUA (structured_RNA) [8 bp SRS2 stem-loop (7bpSRS2+5)]: binds [1]; binds [2].

GGACAUGCACAUGAUUUGUAUGUGUAUGUAUAUA (structured_RNA) [12 bp SRS2 stem-loop (11bpSRS2+5)]: binds [1]; binds [2].

GGACAUGCAUUUGGUAUGUAUAUA (structured_RNA) [7 bp SRS2 stem-loop (6bpSRS2+5)]: no binding [8]; no binding [9].
